# Measured values: IntAct's records for PubMed 20562859
# Tests used:
# [1] = target: T1, ATG16L2 (UniProt Q8NAA4)
# T1 sequence: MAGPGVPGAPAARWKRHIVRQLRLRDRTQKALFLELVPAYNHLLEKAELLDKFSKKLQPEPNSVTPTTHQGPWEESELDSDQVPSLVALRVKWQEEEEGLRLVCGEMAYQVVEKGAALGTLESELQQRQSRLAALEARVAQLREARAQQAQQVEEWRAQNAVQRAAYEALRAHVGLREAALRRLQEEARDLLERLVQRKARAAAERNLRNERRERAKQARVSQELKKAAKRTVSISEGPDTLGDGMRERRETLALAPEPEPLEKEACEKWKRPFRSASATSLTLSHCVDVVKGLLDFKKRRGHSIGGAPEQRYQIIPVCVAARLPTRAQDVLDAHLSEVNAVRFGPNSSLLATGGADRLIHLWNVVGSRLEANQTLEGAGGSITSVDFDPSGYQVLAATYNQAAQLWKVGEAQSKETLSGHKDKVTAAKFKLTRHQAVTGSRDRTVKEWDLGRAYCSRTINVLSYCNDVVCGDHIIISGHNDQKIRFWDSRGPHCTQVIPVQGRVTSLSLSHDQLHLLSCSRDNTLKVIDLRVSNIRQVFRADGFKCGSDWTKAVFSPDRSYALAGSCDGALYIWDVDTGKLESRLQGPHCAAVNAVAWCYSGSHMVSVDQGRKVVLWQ
# [2] = target: T2, tbd2b_human TBC1D2B (UniProt Q9UPU7)
# T2 sequence: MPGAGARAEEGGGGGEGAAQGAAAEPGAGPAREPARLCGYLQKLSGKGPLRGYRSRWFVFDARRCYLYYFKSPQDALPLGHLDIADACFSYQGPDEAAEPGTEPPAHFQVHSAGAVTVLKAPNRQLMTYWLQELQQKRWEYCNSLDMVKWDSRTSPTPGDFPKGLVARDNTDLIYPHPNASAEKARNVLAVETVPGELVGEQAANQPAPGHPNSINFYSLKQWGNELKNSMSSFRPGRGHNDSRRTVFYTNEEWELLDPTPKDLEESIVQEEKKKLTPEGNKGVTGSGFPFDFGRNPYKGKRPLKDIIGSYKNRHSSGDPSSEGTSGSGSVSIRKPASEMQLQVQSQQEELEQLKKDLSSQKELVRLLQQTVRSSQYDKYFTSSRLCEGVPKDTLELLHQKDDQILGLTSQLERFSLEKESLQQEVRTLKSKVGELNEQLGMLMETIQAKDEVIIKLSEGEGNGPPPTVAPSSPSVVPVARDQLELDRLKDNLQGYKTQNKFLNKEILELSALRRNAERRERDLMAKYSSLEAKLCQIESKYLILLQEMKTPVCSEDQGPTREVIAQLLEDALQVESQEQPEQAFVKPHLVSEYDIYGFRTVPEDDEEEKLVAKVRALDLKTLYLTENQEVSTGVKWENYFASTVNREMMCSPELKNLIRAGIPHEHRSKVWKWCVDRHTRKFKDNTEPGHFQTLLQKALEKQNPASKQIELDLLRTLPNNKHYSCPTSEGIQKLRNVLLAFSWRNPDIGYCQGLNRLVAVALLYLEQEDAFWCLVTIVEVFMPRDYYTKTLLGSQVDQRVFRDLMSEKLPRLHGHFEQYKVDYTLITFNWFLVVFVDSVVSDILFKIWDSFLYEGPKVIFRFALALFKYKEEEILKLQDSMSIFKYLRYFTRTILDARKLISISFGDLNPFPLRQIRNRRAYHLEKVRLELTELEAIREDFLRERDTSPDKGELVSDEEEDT
# [3] = target: T3, atg13_human ATG13 (UniProt O75143)
# T3 sequence: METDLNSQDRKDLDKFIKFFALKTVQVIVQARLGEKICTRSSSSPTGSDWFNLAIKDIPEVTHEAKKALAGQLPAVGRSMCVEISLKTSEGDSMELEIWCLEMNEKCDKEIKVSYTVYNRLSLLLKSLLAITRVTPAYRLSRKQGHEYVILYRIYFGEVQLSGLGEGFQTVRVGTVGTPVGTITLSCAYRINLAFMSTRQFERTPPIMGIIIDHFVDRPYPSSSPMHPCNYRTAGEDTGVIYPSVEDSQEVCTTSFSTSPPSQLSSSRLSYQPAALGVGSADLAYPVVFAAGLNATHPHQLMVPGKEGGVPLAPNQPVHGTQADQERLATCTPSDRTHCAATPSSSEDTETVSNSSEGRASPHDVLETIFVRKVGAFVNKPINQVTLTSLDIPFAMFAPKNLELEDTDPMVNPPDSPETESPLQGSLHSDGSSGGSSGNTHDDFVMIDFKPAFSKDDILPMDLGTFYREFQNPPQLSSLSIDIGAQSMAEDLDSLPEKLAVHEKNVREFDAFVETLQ
# [4] = target: T4, stk4_human STK4 (UniProt Q13043)
# T4 sequence: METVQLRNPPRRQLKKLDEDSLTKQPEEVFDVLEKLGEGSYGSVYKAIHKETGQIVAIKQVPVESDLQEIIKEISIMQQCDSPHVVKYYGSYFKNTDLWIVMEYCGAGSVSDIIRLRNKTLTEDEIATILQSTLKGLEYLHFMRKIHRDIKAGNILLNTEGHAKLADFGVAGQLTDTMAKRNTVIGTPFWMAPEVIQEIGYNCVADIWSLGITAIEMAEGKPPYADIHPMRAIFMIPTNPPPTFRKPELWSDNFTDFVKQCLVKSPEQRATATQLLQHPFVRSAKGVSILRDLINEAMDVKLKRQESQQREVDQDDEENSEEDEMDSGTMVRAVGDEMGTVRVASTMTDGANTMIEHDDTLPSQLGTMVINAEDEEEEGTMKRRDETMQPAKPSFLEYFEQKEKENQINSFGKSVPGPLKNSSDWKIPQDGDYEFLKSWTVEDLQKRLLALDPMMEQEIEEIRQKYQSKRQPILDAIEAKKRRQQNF
# [5] = target: kap0_human PRKAR1A (UniProt P10644)
# Sequence of kap0_human PRKAR1A (P10644 whole entry): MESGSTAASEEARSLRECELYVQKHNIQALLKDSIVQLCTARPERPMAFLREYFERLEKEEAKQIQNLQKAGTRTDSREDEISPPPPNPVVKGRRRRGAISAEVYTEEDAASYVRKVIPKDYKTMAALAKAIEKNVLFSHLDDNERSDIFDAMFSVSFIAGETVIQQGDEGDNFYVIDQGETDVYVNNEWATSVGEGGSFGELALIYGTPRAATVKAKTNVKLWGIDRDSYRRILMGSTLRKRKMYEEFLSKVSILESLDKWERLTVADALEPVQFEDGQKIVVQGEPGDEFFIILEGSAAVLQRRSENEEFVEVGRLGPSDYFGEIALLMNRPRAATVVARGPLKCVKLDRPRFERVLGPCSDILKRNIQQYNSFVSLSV
effect of a mutation on the interaction [1],effect of a mutation on the interaction [2],effect of a mutation on the interaction [3],effect of a mutation on the interaction [4],effect of a mutation on the interaction [5],Substance
increasing interaction,,,,,Microtubule-associated protein 1 light chain 3 beta (Homo sapiens) (from UniProt Q9GZQ8) F52A;L53A
,disrupting interaction,decreasing interaction,disrupting interaction,decreasing interaction,Microtubule-associated protein 1 light chain 3 beta (Homo sapiens) (from UniProt Q9GZQ8) R69A
